Laboratory results reported in article PMC10673652, “PoWRKY71 is involved in Paeonia ostii resistance to drought stress by directly regulating light-harvesting chlorophyll a/b-binding 151 gene”.
Changes are numbered by the printed parent chain.

B1: PoCAB151 promoter W-box probe (dsDNA)
DNA 1: GTGTTTCCTGCATTCGGTCAGCAACCAAATGACC
DNA 2: GGTCATTTGGTTGCTGACCGAATGCAGGAAACAC
B2: PoCAB151 promoter W-box mutant probe (dsDNA)
DNA 1: B1 DNA 1 with G17A, T18A, C19A
DNA 2: B1 DNA 2 with G16T, A17T, C18T

Target: PoWRKY71 (Paeonia ostii, UniProt A0AB38Z7I8 1-311)
Sequence (A0AB38Z7I8 entry or part of it): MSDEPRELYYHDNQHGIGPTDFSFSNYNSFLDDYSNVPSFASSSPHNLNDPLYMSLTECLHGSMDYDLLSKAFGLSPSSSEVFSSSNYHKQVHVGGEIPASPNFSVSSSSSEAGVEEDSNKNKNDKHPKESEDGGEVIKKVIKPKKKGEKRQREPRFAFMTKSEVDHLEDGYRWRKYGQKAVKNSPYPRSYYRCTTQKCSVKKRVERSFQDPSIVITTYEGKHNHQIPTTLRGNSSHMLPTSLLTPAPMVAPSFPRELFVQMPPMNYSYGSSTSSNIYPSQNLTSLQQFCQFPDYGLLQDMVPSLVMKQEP
Assay: EMSA; not stated in the material (EMSA as in Luan et al., ref. 58)
Settings: protein: recombinant, tags: His, SUMO (pET-SUMO), blunt

Row | Binder | binding result | binding result (label: biotin)
1 | B1 | binds | 
2 | B2 |  | no binding
